Paper PMC2857972 (The Biochemical journal, 2008)

Target: the molecule itself
Assay: crystal structure

B1: Bacillus megaterium SirC (precorrin-2 dehydrogenase), His6-tagged (enzyme)
chain: MYTVMLDLKGRSVLVVGGGTIATRRIKGFLQEGAAITVVAPTVSAEINEWEAKGQLRVKRKKVGEEDLLNVFFIVVATNDQAVNKFVKQHIKNDQLVNMASSFSDGNIQIPAQFSRGRLSLAISTDGASPLLTKRIKEDLSSNYDESYTQYTQFLYECRVLIHRLNVSKSRKHELLTEIIDDQYRLSLVKQREFLQQIEKYK
**Q.** For B1, which “stoichiometry N” value is on record?
**A.** 2
